The text below walks through data of patent publication US20200331998A1 (ALLOGENE THERAPEUTICS, published 2020).

The target in one test is T1, hCD19-HIS-AVI (human, UniProt P15391 20-291, limits assumed).
T1 construct: not shown: His and Avi tags
T1 sequence (looked up): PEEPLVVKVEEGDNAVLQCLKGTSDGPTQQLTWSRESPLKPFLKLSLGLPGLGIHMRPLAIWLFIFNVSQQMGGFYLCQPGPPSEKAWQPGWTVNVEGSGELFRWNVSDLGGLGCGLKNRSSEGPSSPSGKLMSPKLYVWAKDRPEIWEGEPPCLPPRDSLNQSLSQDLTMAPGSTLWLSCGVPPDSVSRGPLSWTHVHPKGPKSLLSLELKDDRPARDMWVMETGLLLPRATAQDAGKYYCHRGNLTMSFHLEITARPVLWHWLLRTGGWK
The test is described as follows: SPR (Biacore, 25° C.) sandwich assay with buffer/hCD19 injections. The procedure: (§1) Anti-m4G7 purified sub-clone antibodies were tested for binding to m4G7-hFab. Blocking effect was determined using a sandwich assay and binding confirmation to […] was determined using a Biacore assay at 25° C. […] Sensor chip CAP (CAPture chip) #505 was used as a surface. After rehydrating the sensor chip CAP with water at 42° C. for 1 hour, the chip was dried with compressed air. The surface of the chip was conditioned using triplicate 1 min injections of regeneration solution at 10 μl/min. The regeneration solution included 3 parts of Regeneration Stock 1 (8 M guanidine-HCl) with 1 part Regeneration Stock 2 (1 M NaOH). Capture of Biotin CAPture reagent for 5 min at 2 μl/min was followed by capture of biotinylated Fusion E2153 anti-m4G7 purified sub-clones antibodies and control antibodies at 10 μg/ml for 1 min at 10 μl/min.
The blocking effect of m4G7-hFab binding to hCD19 by the purified anti-Ids sub-clones from Fusion E2153 was determined by the sandwich assay at 25° C. Sample 1 was injected for 2 min at 30 μL/min followed by 10 sec in buffer then Sample 2 was injected for 2 min at 30 μL/min followed by 3 min dissociation: […]
Background: Surface plasmon resonance follows binding to a sensor surface in real time, without labels.

The target in test [1] is T2, m4G7 hFab 8×His (human).
T2 construct: Immunogen and Biacore analyte; also called 4G7-human Fab-8×His fusion protein (E2153); m4G7-Fab; not shown: It lies between the VH and the 8xHis tag and is left out
The test is described as follows: SPR (Biacore, 25° C.), biotinylated antibody captured on CAP chip, m4G7-hFab as analyte. As to the method: as §1
(§2) For the kinetics assay, the buffer and m4G7-hFab at 1 nM, 10 nM, and 100 nM were injected for 2 min at 30 μL/min followed by 5 min dissociation.

In test [2] the target is T2, m4G7 hFab 8×His. The test is described as follows: Biacore SPR at 25 °C, biotinylated antibody captured on CAP chip, m4G7-hFab injected, 1:1 Binding fit printed under the sensorgram; the text (Table 3) calls this clone very high affinity, outside instrument limits. The procedure:
as §1, §2

Residue numbers refer to the chain shown, from its start.

T2 sequence (VH, as listed by the source limits assumed, chain 1 of 2): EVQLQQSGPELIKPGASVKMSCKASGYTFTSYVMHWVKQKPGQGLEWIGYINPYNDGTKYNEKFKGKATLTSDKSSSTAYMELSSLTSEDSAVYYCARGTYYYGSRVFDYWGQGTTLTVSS
T2 sequence (VL, as listed by the source limits assumed, chain 2 of 2): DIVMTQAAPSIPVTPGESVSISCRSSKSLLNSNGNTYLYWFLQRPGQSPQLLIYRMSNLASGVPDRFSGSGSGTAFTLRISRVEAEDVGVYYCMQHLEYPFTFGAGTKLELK

B1: E2153.2H8.A8 (antibody, V domains shown)
VH: QVQLQQSGAELVKPGASVKVSCKAFGYTFTTYPIEWMRQNHGKSLEWIGNFHPYNDDTRYNEKFKDKAKLTVEKSSSTVYLELSRLTYDDSAVYYCTRGNDYDLYGMDYWGQGTSVTVSS
VL: DIKMTQSPSSMYASLGERVTITCKASQDINTYLTWFQQKPGKSPKTLIYRANRLVDGVPSRFSGSGSGQDYSLTISSLEYEDMGIYYCLQCDDFPLTFGAGTKLELKR
notes: Mouse IgG1/kappa hybridoma antibody; Biotinylated for the Biacore assays; also called Clone A8; anti-UCART19 idiotype antibody A8
In general, Kd refers to the free concentration of one partner at which half of the binding sites on the other are occupied at equilibrium, for simple one-to-one binding. The koff is the rate constant with which the complex falls apart. A high value points to fast dissociation. Broadly, the kon is a measure of how fast the partners come together. A higher kon goes with faster complex formation. For B1, in the test with hCD19-HIS-AVI, the binding result is listed as “no binding (tested: 300 nM)”. In addition, in the test with m4G7 hFab 8×His [1], binding was characterised by a dissociation constant (Kd) of 0.0144 nM, the koff turned out to be 0.000106 s⁻¹, the kon was determined as 7.35e+06 M⁻¹ s⁻¹ and the “t1/2” value came to 1.82 h.

B2: E2153.4D7.E11 (antibody, V domains shown)
VH: QVQLQQSGAELVRPGTSVKVSCKASGYAFTNYLIEWVKQRPGQGLEWIGVITPGSGGSNYNEKFKGKATLTADKSSSTAYMQLSSLTSDDSAVYFCARWLDYDWFAYWGQGTLVTVSA
VL: DIKMTQSPSSMYASLGERVTITCKASQDINSYLSWFQQKPGKSPKTLIYRANRLVDGVPSRFSGSGSGQDYSLTISSLEYEDMGIYYCRQCDEFPSTFGGGTKLEIK
notes: Mouse hybridoma antibody; Biotinylated for the Biacore assays; PE-labelled in flow cytometry; also called Clone E11
Turning to B2, in the test with hCD19-HIS-AVI, the binding result is recorded as “no binding (tested: 300 nM)”. Also, in the test with m4G7 hFab 8×His [2], the Kd stood at 0.00936 nM, the koff came to 3.65e-05 s⁻¹ and the kon turned out to be 3.9e+06 M⁻¹ s⁻¹.

B3: E2153.1C4.E2 (antibody, V domains shown)
VH: B1 VH
VL: B2 VL with S7F, S31T, S34T, R89L, E93D, S96L, G100A, I106L
notes: Mouse hybridoma antibody; Biotinylated for the Biacore assays; also called Clone E2
In the case of B3, the binding result with hCD19-HIS-AVI is recorded as “no binding (tested: 300 nM)”. In the test with m4G7 hFab 8×His [1], the Kd was found to be 0.0167 nM, the koff stood at 0.000128 s⁻¹, the kon is 7.65e+06 M⁻¹ s⁻¹ and the “t1/2” value came out at 1.5 h.

B4: E2153.1D9.B4 (antibody, V domains shown)
VH: B2 VH with V37I, T52N, S58I, A72S
VL: B2 VL with S7F, L15V, R89L, S96F
notes: Mouse hybridoma antibody; Biotinylated for the Biacore assays; also called Clone B4
Take B4: the binding result in the test with hCD19-HIS-AVI is reported as “no binding (tested: 300 nM)”. In addition, in the test with m4G7 hFab 8×His [2], binding was characterised by a dissociation constant (Kd) of 0.00489 nM, the koff was 1.58e-05 s⁻¹ and the kon was found to be 3.22e+06 M⁻¹ s⁻¹.
